Measured values from patent US20140087995A1 (published 2014).
Numbered stars: 1 amine (or outer) side, 2 acyl side, 3 side chain; on linkers, the order of the positions; unused ones are H or OH. Bridge positions count the residues as written; N and C are the ends. Side chains are listed from the residue outwards. Ends that are not written are not given here. * marks the point of attachment. C20 diacid = O=C(O)CCCCCCCCCCCCCCCCCCC(=O)*; γGlu = O=C(O)[C@H](CCC(=O)[*:2])N[*:1]

T1: human amylin 3(a) receptor (human calcitonin receptor co-expressed with RAMP-3) (human, UniProt P30988 25-474; O60896 24-148, limits assumed)
T1 sequence (looked up) 1: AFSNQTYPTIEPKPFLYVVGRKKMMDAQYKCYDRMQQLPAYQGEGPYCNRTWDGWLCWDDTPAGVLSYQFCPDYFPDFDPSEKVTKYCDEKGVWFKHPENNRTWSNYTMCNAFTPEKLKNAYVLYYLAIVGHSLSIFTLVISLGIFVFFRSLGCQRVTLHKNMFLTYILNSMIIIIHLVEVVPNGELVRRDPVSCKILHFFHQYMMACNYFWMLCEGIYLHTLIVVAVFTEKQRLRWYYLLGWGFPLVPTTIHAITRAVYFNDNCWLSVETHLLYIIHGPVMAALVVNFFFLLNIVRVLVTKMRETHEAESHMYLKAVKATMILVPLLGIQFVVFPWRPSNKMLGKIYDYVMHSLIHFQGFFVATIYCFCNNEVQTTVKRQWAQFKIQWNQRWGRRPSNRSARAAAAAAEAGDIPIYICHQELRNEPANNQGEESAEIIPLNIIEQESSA
T1 sequence (looked up) 2: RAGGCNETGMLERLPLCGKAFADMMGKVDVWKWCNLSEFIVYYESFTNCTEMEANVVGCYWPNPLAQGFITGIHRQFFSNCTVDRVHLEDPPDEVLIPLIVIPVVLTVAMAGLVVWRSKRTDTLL

T2: human calcitonin receptor (human, UniProt P30988 25-474)
T2 sequence (looked up): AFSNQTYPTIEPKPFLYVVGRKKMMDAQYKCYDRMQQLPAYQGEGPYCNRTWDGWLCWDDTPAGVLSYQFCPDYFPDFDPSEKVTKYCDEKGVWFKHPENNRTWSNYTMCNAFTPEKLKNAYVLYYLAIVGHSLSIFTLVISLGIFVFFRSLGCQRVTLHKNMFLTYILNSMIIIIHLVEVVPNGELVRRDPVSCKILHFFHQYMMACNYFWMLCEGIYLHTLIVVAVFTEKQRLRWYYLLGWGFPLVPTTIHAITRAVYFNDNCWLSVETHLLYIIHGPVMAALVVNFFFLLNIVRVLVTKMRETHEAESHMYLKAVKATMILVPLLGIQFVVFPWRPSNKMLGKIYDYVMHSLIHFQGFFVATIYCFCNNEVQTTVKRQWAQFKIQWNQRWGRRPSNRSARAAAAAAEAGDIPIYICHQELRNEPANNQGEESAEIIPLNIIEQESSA


Legend:
[1] = target: T1, human amylin 3(a) receptor (human …); experiment: cell-based or functional assay
[2] = target: T2, human calcitonin receptor; experiment: cell-based or functional assay

Row | hAmylin-R funct. EC50 [1] [nM] | Ratio hCT/hAmylin funct. [2] | hCTR funct. EC50 [2] [nM] | Binder
1 | 0.071 | 4.9 | 0.345 | K([γGlu-C20 diacid])CNTATCATQRLAHFLRHSSPNFGAIPSSTPVGPNTY-NH2 (disulfide 2-7; N-terminus assumed; SMILES CC[C@H](C)[C@H](NC(=O)[C@H](C)NC(=O)CNC(=O)[C@H](Cc1ccccc1)NC(=O)[C@H](CC(N)=O)NC(=O)[C@@H]1CCCN1C(=O)[C@H](CO)NC(=O)[C@H](CO)NC(=O)[C@H](Cc1c[nH]cn1)NC(=O)[C@H](CCCNC(=N)N)NC(=O)[C@H](CC(C)C)NC(=O)[C@H](Cc1ccccc1)NC(=O)[C@H](Cc1c[nH]cn1)NC(=O)[C@H](C)NC(=O)[C@H](CC(C)C)NC(=O)[C@H](CCCNC(=N)N)NC(=O)[C@H](CCC(N)=O)NC(=O)[C@@H](NC(=O)[C@H](C)NC(=O)[C@@H]1CSSC[C@H](NC(=O)[C@@H](N)CCCCNC(=O)CC[C@H](NC(=O)CCCCCCCCCCCCCCCCCCC(=O)O)C(=O)O)C(=O)N[C@@H](CC(N)=O)C(=O)N[C@@H]([C@@H](C)O)C(=O)N[C@@H](C)C(=O)N[C@@H]([C@@H](C)O)C(=O)N1)[C@@H](C)O)C(=O)N1CCC[C@H]1C(=O)N[C@@H](CO)C(=O)N[C@@H](CO)C(=O)N[C@H](C(=O)N1CCC[C@H]1C(=O)N[C@H](C(=O)NCC(=O)N1CCC[C@H]1C(=O)N[C@@H](CC(N)=O)C(=O)N[C@H](C(=O)N[C@@H](Cc1ccc(O)cc1)C(N)=O)[C@@H](C)O)C(C)C)[C@@H](C)O)
2 | 0.161 | 5.2 | 0.841 | K([γGlu-C20 diacid])CNTATCATQRLAEFLRHSSPNFGAIPSSTNVGPETY-NH2 (disulfide 2-7; N-terminus assumed; SMILES CC[C@H](C)[C@H](NC(=O)[C@H](C)NC(=O)CNC(=O)[C@H](Cc1ccccc1)NC(=O)[C@H](CC(N)=O)NC(=O)[C@@H]1CCCN1C(=O)[C@H](CO)NC(=O)[C@H](CO)NC(=O)[C@H](Cc1c[nH]cn1)NC(=O)[C@H](CCCNC(=N)N)NC(=O)[C@H](CC(C)C)NC(=O)[C@H](Cc1ccccc1)NC(=O)[C@H](CCC(=O)O)NC(=O)[C@H](C)NC(=O)[C@H](CC(C)C)NC(=O)[C@H](CCCNC(=N)N)NC(=O)[C@H](CCC(N)=O)NC(=O)[C@@H](NC(=O)[C@H](C)NC(=O)[C@@H]1CSSC[C@H](NC(=O)[C@@H](N)CCCCNC(=O)CC[C@H](NC(=O)CCCCCCCCCCCCCCCCCCC(=O)O)C(=O)O)C(=O)N[C@@H](CC(N)=O)C(=O)N[C@@H]([C@@H](C)O)C(=O)N[C@@H](C)C(=O)N[C@@H]([C@@H](C)O)C(=O)N1)[C@@H](C)O)C(=O)N1CCC[C@H]1C(=O)N[C@@H](CO)C(=O)N[C@@H](CO)C(=O)N[C@H](C(=O)N[C@@H](CC(N)=O)C(=O)N[C@H](C(=O)NCC(=O)N1CCC[C@H]1C(=O)N[C@@H](CCC(=O)O)C(=O)N[C@H](C(=O)N[C@@H](Cc1ccc(O)cc1)C(N)=O)[C@@H](C)O)C(C)C)[C@@H](C)O)

The next lines start with the binder.

Row | Binder | hAmylin-R funct. EC50 [1] [nM] | Ratio hCT/hAmylin funct. [2] | hCTR funct. EC50 [2] [nM]
3 | K([γGlu-C20 diacid])CNTATCATQRLAEFLRHSSPNFGAIPSSTNVGPRTY-NH2 (disulfide 2-7; N-terminus assumed; SMILES CC[C@H](C)[C@H](NC(=O)[C@H](C)NC(=O)CNC(=O)[C@H](Cc1ccccc1)NC(=O)[C@H](CC(N)=O)NC(=O)[C@@H]1CCCN1C(=O)[C@H](CO)NC(=O)[C@H](CO)NC(=O)[C@H](Cc1c[nH]cn1)NC(=O)[C@H](CCCNC(=N)N)NC(=O)[C@H](CC(C)C)NC(=O)[C@H](Cc1ccccc1)NC(=O)[C@H](CCC(=O)O)NC(=O)[C@H](C)NC(=O)[C@H](CC(C)C)NC(=O)[C@H](CCCNC(=N)N)NC(=O)[C@H](CCC(N)=O)NC(=O)[C@@H](NC(=O)[C@H](C)NC(=O)[C@@H]1CSSC[C@H](NC(=O)[C@@H](N)CCCCNC(=O)CC[C@H](NC(=O)CCCCCCCCCCCCCCCCCCC(=O)O)C(=O)O)C(=O)N[C@@H](CC(N)=O)C(=O)N[C@@H]([C@@H](C)O)C(=O)N[C@@H](C)C(=O)N[C@@H]([C@@H](C)O)C(=O)N1)[C@@H](C)O)C(=O)N1CCC[C@H]1C(=O)N[C@@H](CO)C(=O)N[C@@H](CO)C(=O)N[C@H](C(=O)N[C@@H](CC(N)=O)C(=O)N[C@H](C(=O)NCC(=O)N1CCC[C@H]1C(=O)N[C@@H](CCCNC(=N)N)C(=O)N[C@H](C(=O)N[C@@H](Cc1ccc(O)cc1)C(N)=O)[C@@H](C)O)C(C)C)[C@@H](C)O) | 0.376 | 17 | 6.38
4 | K([γGlu-C20 diacid])CNTATCATQRLAHFLRHSSPNFGAIPSSTNVGHNTY-NH2 (disulfide 2-7; N-terminus assumed; SMILES CC[C@H](C)[C@H](NC(=O)[C@H](C)NC(=O)CNC(=O)[C@H](Cc1ccccc1)NC(=O)[C@H](CC(N)=O)NC(=O)[C@@H]1CCCN1C(=O)[C@H](CO)NC(=O)[C@H](CO)NC(=O)[C@H](Cc1c[nH]cn1)NC(=O)[C@H](CCCNC(=N)N)NC(=O)[C@H](CC(C)C)NC(=O)[C@H](Cc1ccccc1)NC(=O)[C@H](Cc1c[nH]cn1)NC(=O)[C@H](C)NC(=O)[C@H](CC(C)C)NC(=O)[C@H](CCCNC(=N)N)NC(=O)[C@H](CCC(N)=O)NC(=O)[C@@H](NC(=O)[C@H](C)NC(=O)[C@@H]1CSSC[C@H](NC(=O)[C@@H](N)CCCCNC(=O)CC[C@H](NC(=O)CCCCCCCCCCCCCCCCCCC(=O)O)C(=O)O)C(=O)N[C@@H](CC(N)=O)C(=O)N[C@@H]([C@@H](C)O)C(=O)N[C@@H](C)C(=O)N[C@@H]([C@@H](C)O)C(=O)N1)[C@@H](C)O)C(=O)N1CCC[C@H]1C(=O)N[C@@H](CO)C(=O)N[C@@H](CO)C(=O)N[C@H](C(=O)N[C@@H](CC(N)=O)C(=O)N[C@H](C(=O)NCC(=O)N[C@@H](Cc1c[nH]cn1)C(=O)N[C@@H](CC(N)=O)C(=O)N[C@H](C(=O)N[C@@H](Cc1ccc(O)cc1)C(N)=O)[C@@H](C)O)C(C)C)[C@@H](C)O, also called compound 81) | 0.13 | 13.3 | 1.73
5 | K([γGlu-C20 diacid])CNTATCATQRLAHFLRHSSPNFGAIPSSTNVGRNTY-NH2 (disulfide 2-7; N-terminus assumed; SMILES CC[C@H](C)[C@H](NC(=O)[C@H](C)NC(=O)CNC(=O)[C@H](Cc1ccccc1)NC(=O)[C@H](CC(N)=O)NC(=O)[C@@H]1CCCN1C(=O)[C@H](CO)NC(=O)[C@H](CO)NC(=O)[C@H](Cc1c[nH]cn1)NC(=O)[C@H](CCCNC(=N)N)NC(=O)[C@H](CC(C)C)NC(=O)[C@H](Cc1ccccc1)NC(=O)[C@H](Cc1c[nH]cn1)NC(=O)[C@H](C)NC(=O)[C@H](CC(C)C)NC(=O)[C@H](CCCNC(=N)N)NC(=O)[C@H](CCC(N)=O)NC(=O)[C@@H](NC(=O)[C@H](C)NC(=O)[C@@H]1CSSC[C@H](NC(=O)[C@@H](N)CCCCNC(=O)CC[C@H](NC(=O)CCCCCCCCCCCCCCCCCCC(=O)O)C(=O)O)C(=O)N[C@@H](CC(N)=O)C(=O)N[C@@H]([C@@H](C)O)C(=O)N[C@@H](C)C(=O)N[C@@H]([C@@H](C)O)C(=O)N1)[C@@H](C)O)C(=O)N1CCC[C@H]1C(=O)N[C@@H](CO)C(=O)N[C@@H](CO)C(=O)N[C@H](C(=O)N[C@@H](CC(N)=O)C(=O)N[C@H](C(=O)NCC(=O)N[C@@H](CCCNC(=N)N)C(=O)N[C@@H](CC(N)=O)C(=O)N[C@H](C(=O)N[C@@H](Cc1ccc(O)cc1)C(N)=O)[C@@H](C)O)C(C)C)[C@@H](C)O, also called compound 85) | 0.146 | 26.6 | 3.88
6 | K([γGlu-γGlu-C20 diacid])CNTATCATQRLANFLRHSSPNFGAIPSSTNVGHNTY-NH2 (disulfide 2-7; N-terminus assumed; SMILES CC[C@H](C)[C@H](NC(=O)[C@H](C)NC(=O)CNC(=O)[C@H](Cc1ccccc1)NC(=O)[C@H](CC(N)=O)NC(=O)[C@@H]1CCCN1C(=O)[C@H](CO)NC(=O)[C@H](CO)NC(=O)[C@H](Cc1c[nH]cn1)NC(=O)[C@H](CCCNC(=N)N)NC(=O)[C@H](CC(C)C)NC(=O)[C@H](Cc1ccccc1)NC(=O)[C@H](CC(N)=O)NC(=O)[C@H](C)NC(=O)[C@H](CC(C)C)NC(=O)[C@H](CCCNC(=N)N)NC(=O)[C@H](CCC(N)=O)NC(=O)[C@@H](NC(=O)[C@H](C)NC(=O)[C@@H]1CSSC[C@H](NC(=O)[C@@H](N)CCCCNC(=O)CC[C@H](NC(=O)CC[C@H](NC(=O)CCCCCCCCCCCCCCCCCCC(=O)O)C(=O)O)C(=O)O)C(=O)N[C@@H](CC(N)=O)C(=O)N[C@@H]([C@@H](C)O)C(=O)N[C@@H](C)C(=O)N[C@@H]([C@@H](C)O)C(=O)N1)[C@@H](C)O)C(=O)N1CCC[C@H]1C(=O)N[C@@H](CO)C(=O)N[C@@H](CO)C(=O)N[C@H](C(=O)N[C@@H](CC(N)=O)C(=O)N[C@H](C(=O)NCC(=O)N[C@@H](Cc1c[nH]cn1)C(=O)N[C@@H](CC(N)=O)C(=O)N[C@H](C(=O)N[C@@H](Cc1ccc(O)cc1)C(N)=O)[C@@H](C)O)C(C)C)[C@@H](C)O, also called compound 86) | 0.298 | 64.4 | 19.2
